For series [1] the following is noted: cited from earlier work.
For series [2] the following is noted: cited from earlier work. This is another data set of the same source.
Series [3] is described as follows: Circular dichroism analysis of released protein. Format: physicochemical. The note with it: protein released from O-LA-SG into PBS, sample at day 40. As for the experimental part:
At day 40 a sample of the PBS solution was tested be circular dichroism CD analysis to monitor for any changes in protein structure.
On the technique in general: Circular dichroism is the unequal absorption of left and right circularly polarised light.

The nature of series [4]: Isoelectric focusing (IEF) of ovalbumin during processing. The format is physicochemical. As for the experimental part: Samples of O-LA were prepared as in Example 5. Samples at each step of the process were collected and analyzed by Isoelectric focusing (IEF) which measures the isoelectric point (pI) of the protein. A shift in pI of more than 0.2 is indicative of a single deamidation reaction. All samples had pI values that indicated no deamidation had occurred. The same samples were analyzed by ELISA. The ELISA tests indicated no denaturation of the epitope had occurred.

The mark [5] stands for this setting: 1-octanol/water (pH 7.4; buffer solution).

We go through eight molecules from US10226417B2, “Drug delivery systems and applications” (priority 2011, dated 2019).

Values after ≈ are worked out from the molar mass of the structure shown. Where two headings read alike, the source gives them in different places.

For the molecule `CCCCCCCCCCCC(=O)O` [dodecanoic], the lipophilicity (log P) in series [1] (setting [5]) was 4.77. In addition, in series [2] (value is for the methyl ester of the acid named in the row), the Methyl ester solubility was 4.8 µg/mL. Also, the “Solubility in water at 20° C.” value in series [2] was 55 µg/mL (≈ 275 µM).

For `CCCCCCCCCCCCCCCC(=O)OC` [methyl palmitate], the “log P” value in series [1] (setting [5]) was 7.41.

Take `CCCCCCCCCCCCCCCCCC(=O)OC` [methyl stearate]: the “log P” value in series [1] (setting [5]) is reported as 8.43.

Take `CCCCCCCCCCCCCC(=O)O` [tetradecanoic]: in series [2], the “Solubility in water at 20° C.” value was 20 µg/mL (≈ 87.6 µM).

With `CCCCCCCCCC(=O)O` [decanoic], the log partition coefficient (log P) in series [1] (pH 7.4) is recorded as 3.75.

B1: ovalbumin: protein albumin used to model a water soluble therapeutic agent protein (protein, UniProt P01012 2-386, looked up)
Ovalbumin: GSIGAASMEFCFDVFKELKVHHANENIFYCPIAIMSALAMVYLGAKDSTRTQINKVVRFDKLPGFGDSIEAQCGTSVNVHSSLRDILNQITKPNDVYSFSLASRLYAEERYPILPEYLQCVKELYRGGLEPINFQTAADQARELINSWVESQTNGIIRNVLQPSSVDSQTAMVLVNAIVFKGLWEKAFKDEDTQAMPFRVTEQESKPVQMMYQIGLFRVASMASEKMKILELPFASGTMSMLVLLPDEVSGLEQLESIINFEKLTEWTSSNVMEERKIKVYLPRMKMEEKYNLTSVLMAMGITDVFSSSANLSGISSAESLKISQAVHAAHAEINEAGREVVGSAEAGVDAASVSEEFRADHPFLFCIKHIATNAVLFFGRCVSP
Regarding B1, the “change in protein structure by circular dichroism” value in series [3] was “no wavelength shift”.

B2: Ground Albumin powder: ovalbumin ground to a fine powder, process sample (protein, UniProt P01012 2-386, looked up)
Ovalbumin: B1 Ovalbumin
modifications: ground powder
notes: ovalbumin ground to a fine powder, process sample
For B2, in series [4] (Sample 1), the “IEF data Ovalbumin A1 %” value is 81.7%, the “IEF data Ovalbumin A1 pI” value turned out to be 5.10, the “IEF data Ovalbumin A2 + A3 %” value was 18.3% and the “IEF data Ovalbumin A2 + A3 pI” value amounted to 5.15. In series [4] (Sample 2), the “IEF data Ovalbumin A1 %” value was 81.2%, the “IEF data Ovalbumin A1 pI” value came out at 5.11, the “IEF data Ovalbumin A2 + A3 %” value was 18.8% and the “IEF data Ovalbumin A2 + A3 pI” value was 5.15.

B3: Albumin powder: ovalbumin powder, process sample before grinding (protein, UniProt P01012 2-386, looked up)
Ovalbumin: B1 Ovalbumin
modifications: powder
notes: ovalbumin powder, process sample before grinding
For B3, in series [4] (Sample 1), the “IEF data Ovalbumin A1 %” value stood at 80.9%, the “IEF data Ovalbumin A1 pI” value is recorded as 5.10, the “IEF data Ovalbumin A2 + A3 %” value amounted to 19.1% and the “IEF data Ovalbumin A2 + A3 pI” value was 5.14. Besides, in series [4] (Sample 2), the “IEF data Ovalbumin A1 %” value stood at 82.2%, the “IEF data Ovalbumin A1 pI” value was determined as 5.09, the “IEF data Ovalbumin A2 + A3 %” value is 17.8% and the “IEF data Ovalbumin A2 + A3 pI” value was found to be 5.14.

One may read the log P as a log measure of how a compound divides between an organic and an aqueous phase.
